Abundance fitness data for 34 variants are collected here from the Human Domainome abundance scans (Beltran et al. 2025).

± gives the uncertainty stated by the source.

To fix the notation:
B1: Homeobox protein cut-like 1, residues 548 to 629; numbered along this chain, P39880 (parent)
chain: GEEMDTAEIARQVKEQLIKHNIGQRIFGHYVLGLSQGSVSEILARPKPWNKLTVRGKEPFHKMKQFLSDEQNILALRSIQGR

In the series the parent is B1. Kind of series: abundance fitness (aPCA) (normalised: wild type 0, dead -1); higher = more abundant; growth selection in yeast, the domain comes from the species named. Particulars: Homo sapiens.
In the case of GEEMDTAEIARQVKEQHIKHNIGQRIFGHYVLGLSQGSVSEILARPKPWNKLTVRGKEPFHKMKQFLSDEQNILALRSIQGR [L17H], the abundance fitness is -0.939 ± 0.27.
For the variant GEEMDTAEIARQVKEQEIKHNIGQRIFGHYVLGLSQGSVSEILARPKPWNKLTVRGKEPFHKMKQFLSDEQNILALRSIQGR [L17E], the abundance fitness is -0.613 ± 0.039.
Regarding GEEMDTAEIARQVKEQNIKHNIGQRIFGHYVLGLSQGSVSEILARPKPWNKLTVRGKEPFHKMKQFLSDEQNILALRSIQGR [L17N], the abundance fitness was -0.696 ± 0.12.
As to GEEMDTAEIARQVKEQMIKHNIGQRIFGHYVLGLSQGSVSEILARPKPWNKLTVRGKEPFHKMKQFLSDEQNILALRSIQGR [L17M], the abundance fitness is -0.405 ± 0.046.
Take GEEMDTAEIARQVKEQDIKHNIGQRIFGHYVLGLSQGSVSEILARPKPWNKLTVRGKEPFHKMKQFLSDEQNILALRSIQGR [L17D]: the abundance fitness was -0.774 ± 0.093.
Turning to GEEMDTAEIARQVKEQAIKHNIGQRIFGHYVLGLSQGSVSEILARPKPWNKLTVRGKEPFHKMKQFLSDEQNILALRSIQGR [L17A], the abundance fitness was -0.724 ± 0.044.
With GEEMDTAEIARQVKEQPIKHNIGQRIFGHYVLGLSQGSVSEILARPKPWNKLTVRGKEPFHKMKQFLSDEQNILALRSIQGR [L17P], the abundance fitness was -0.538 ± 0.051.
For the variant GEEMDTAEIARQVKEQFIKHNIGQRIFGHYVLGLSQGSVSEILARPKPWNKLTVRGKEPFHKMKQFLSDEQNILALRSIQGR [L17F], the abundance fitness is -0.808 ± 0.18.
Regarding GEEMDTAEIARQVKEQCIKHNIGQRIFGHYVLGLSQGSVSEILARPKPWNKLTVRGKEPFHKMKQFLSDEQNILALRSIQGR [L17C], the abundance fitness is -0.493 ± 0.079.
To GEEMDTAEIARQVKEQIIKHNIGQRIFGHYVLGLSQGSVSEILARPKPWNKLTVRGKEPFHKMKQFLSDEQNILALRSIQGR [L17I] belongs -0.358 ± 0.094; to GEEMDTAEIARQVKKQLIKHNIGQRIFGHYVLGLSQGSVSEILARPKPWNKLTVRGKEPFHKMKQFLSDEQNILALRSIQGR [E15K], -0.573 ± 0.33; to GEEMDTAEIARQVKCQLIKHNIGQRIFGHYVLGLSQGSVSEILARPKPWNKLTVRGKEPFHKMKQFLSDEQNILALRSIQGR [E15C], 0.094 ± 0.25.
The same measure for GEEMDTAEIARQVKYQLIKHNIGQRIFGHYVLGLSQGSVSEILARPKPWNKLTVRGKEPFHKMKQFLSDEQNILALRSIQGR [E15Y]: -0.091 ± 0.14; for GEEMDTAEIARQVKIQLIKHNIGQRIFGHYVLGLSQGSVSEILARPKPWNKLTVRGKEPFHKMKQFLSDEQNILALRSIQGR [E15I]: -0.003 ± 0.24; for GEEMDTAEIARQVKGQLIKHNIGQRIFGHYVLGLSQGSVSEILARPKPWNKLTVRGKEPFHKMKQFLSDEQNILALRSIQGR [E15G]: -0.332 ± 0.16.
Turning to GEEMDTAEIARQVKSQLIKHNIGQRIFGHYVLGLSQGSVSEILARPKPWNKLTVRGKEPFHKMKQFLSDEQNILALRSIQGR [E15S], the abundance fitness amounted to 0.034 ± 0.093.
The same measure for GEEMDTAEIARQVKTQLIKHNIGQRIFGHYVLGLSQGSVSEILARPKPWNKLTVRGKEPFHKMKQFLSDEQNILALRSIQGR [E15T]: -0.143 ± 0.12; for GEEMDTAEIARQVKLQLIKHNIGQRIFGHYVLGLSQGSVSEILARPKPWNKLTVRGKEPFHKMKQFLSDEQNILALRSIQGR [E15L]: -0.03 ± 0.075; for GEEMDTAEIARQVKQQLIKHNIGQRIFGHYVLGLSQGSVSEILARPKPWNKLTVRGKEPFHKMKQFLSDEQNILALRSIQGR [E15Q]: -0.077 ± 0.1.
As to GEEMDTAEIARQVKRQLIKHNIGQRIFGHYVLGLSQGSVSEILARPKPWNKLTVRGKEPFHKMKQFLSDEQNILALRSIQGR [E15R], the abundance fitness was -0.207 ± 0.12.
To GEEMDTAEIARQVKFQLIKHNIGQRIFGHYVLGLSQGSVSEILARPKPWNKLTVRGKEPFHKMKQFLSDEQNILALRSIQGR [E15F] belongs -0.363 ± 0.23.
GEEMDTAEIARQVKDQLIKHNIGQRIFGHYVLGLSQGSVSEILARPKPWNKLTVRGKEPFHKMKQFLSDEQNILALRSIQGR [E15D]: the abundance fitness was -0.211 ± 0.19.
GEEMDTAEIARQVKNQLIKHNIGQRIFGHYVLGLSQGSVSEILARPKPWNKLTVRGKEPFHKMKQFLSDEQNILALRSIQGR [E15N]: the abundance fitness was -0.328 ± 0.23.
On to GEEMDTAEIARQVKAQLIKHNIGQRIFGHYVLGLSQGSVSEILARPKPWNKLTVRGKEPFHKMKQFLSDEQNILALRSIQGR [E15A], for which the abundance fitness was -0.023 ± 0.13.
With GEEMDTAEIARQVKVQLIKHNIGQRIFGHYVLGLSQGSVSEILARPKPWNKLTVRGKEPFHKMKQFLSDEQNILALRSIQGR [E15V], the abundance fitness was -0.19 ± 0.077.
The same measure for GEEMDTAEIARQVKEHLIKHNIGQRIFGHYVLGLSQGSVSEILARPKPWNKLTVRGKEPFHKMKQFLSDEQNILALRSIQGR [Q16H]: -0.113 ± 0.3.
To GEEMDTAEIARQVLEQLIKHNIGQRIFGHYVLGLSQGSVSEILARPKPWNKLTVRGKEPFHKMKQFLSDEQNILALRSIQGR [K14L] belongs -0.401 ± 0.17; to GEEMDTAEIARQVSEQLIKHNIGQRIFGHYVLGLSQGSVSEILARPKPWNKLTVRGKEPFHKMKQFLSDEQNILALRSIQGR [K14S], 0.565 ± 0.4; to GEEMDTAEIARQVHEQLIKHNIGQRIFGHYVLGLSQGSVSEILARPKPWNKLTVRGKEPFHKMKQFLSDEQNILALRSIQGR [K14H], 0.1 ± 0.17.
To GEEMDTAEIARQVEEQLIKHNIGQRIFGHYVLGLSQGSVSEILARPKPWNKLTVRGKEPFHKMKQFLSDEQNILALRSIQGR [K14E] belongs -0.282 ± 0.16; to GEEMDTAEIARQVNEQLIKHNIGQRIFGHYVLGLSQGSVSEILARPKPWNKLTVRGKEPFHKMKQFLSDEQNILALRSIQGR [K14N], -0.058 ± 0.23; to GEEMDTAEIARQVREQLIKHNIGQRIFGHYVLGLSQGSVSEILARPKPWNKLTVRGKEPFHKMKQFLSDEQNILALRSIQGR [K14R], -0.111 ± 0.099.
For the variant GEEMDTAEIARQVTEQLIKHNIGQRIFGHYVLGLSQGSVSEILARPKPWNKLTVRGKEPFHKMKQFLSDEQNILALRSIQGR [K14T], the abundance fitness is -0.396 ± 0.23.
To GEEMDTAEIARQVIEQLIKHNIGQRIFGHYVLGLSQGSVSEILARPKPWNKLTVRGKEPFHKMKQFLSDEQNILALRSIQGR [K14I] belongs -0.24 ± 0.22.
